Reference: patent US9828641B2, “Systemic genotoxicity as blood marker for allergic inflammation” (The Regents of the University of California, priority 2013, dated 2017)
“Also recorded” adds a separate entry of the source.

Key:
peripheral leukocytes [1] = test: Alkaline comet assay with and without hOgg1 incubation; assay type: in vivo; conditions: wildtype mice, single tail vein injection; for Time of maximum DNA damage to peripheral leukocytes: TNF-α 500 ng or IL-β 100 ng alone; for Time to repair of DNA damage in peripheral leukocytes: TNF-α 500 ng/mouse or IL-β 100 ng/mouse alone
Experimental: Frozen blood was further diluted 1:15 in PBS before further preparation.
(§1) The enzyme hOgg1-modified comet assay was used for determination of oxidative DNA damage (25). Following lysis, samples were washed in an enzyme wash buffer (40 mM HEPES, 0.1M KCl, 0.5 mM EDTA, 0.2 mg/ml BSA, pH 8.0) then incubated at 37° C. for 10 min in either control (buffer with no hOGG1) or enzyme treated (buffer with hOGG1) solutions according to the manufacturer's recommendations. (New England Biolabs, Ipswich, Mass.). Both control and enzyme treated gels were then placed in electrophoresis buffer and processed identically to the alkaline comet assay.
The enzyme hOgg1-modified comet assay was used and carried out identically as previously described (1).
as §1, with “For determination of oxidative DNA damage the” for “The”, “(5). After lysis in the alkaline comet assay,” for “for determination of oxidative DNA damage (25). Following lysis,”, “recommendations” for “recommendations.”
Control animals received vehicle only.

[2] = tested on: normochromatic erythrocytes; test: In vivo micronucleus assay; conditions: wildtype mice, 48 hours post-injection
Experimental: Micronuclei (MN) formation was determined in peripheral blood erythrocytes to assess chromosomal instability. Similar to a previously proposed method (28), 3 μl of whole blood was spread on a microscope slide and stained in Modified Wright-Giemsa solution (Sigma-Aldrich, St. Louis, Mo.). MN were counted and scored with an Olympus Ax70 (Tokyo, Japan) at 100× following previously proposed criteria (29). At least 4000 mature erythrocytes were counted per mouse, and the frequency of MN formation was calculated as number of micronucleated erythrocytes per 1000 normochromatic erythrocytes.
Micronucleus formation was determined in normochromatic erythrocytes as micronucleated normochromatic erythrocytes per 1000 normochromatic erythrocytes as described previously (1, 8).
Mouse TNF-α (Sigma) and/or mouse IL-1β (Sigma) were injected via the tail vein at 500 ng/mouse and 100 ng/mouse, respectively, dissolved in saline. Control animals received vehicle only. Peripheral blood was collected at 1 hr, 2 hrs, 4 hrs, and 24 hrs after injection for genotoxicity assays.

[3] = literature statement; cited from earlier work
[4] = tested on: TNF-α, MCP-1, IFN-γ, TGF-β transcripts; test: Quantitative real-time PCR of cytokines in peripheral blood; assay type: in vivo, mice; conditions: 3% DSS, particularly after the first cycle
Experimental: Total RNA was isolated using QiaAmp RNA Blood Mini Kit (Qiagen) according to manufacturer's instructions. 25 ng/μl of total RNA was used for reverse transcription using OligodT (Invitrogen) and Superscript III Reverse Transcriptase (Invitrogen). 10 ng/μl of cDNA was used for quantitative real time PCR using Taqman Gene Expression Assays (Applied Biosystems, Foster City, Calif. p/n 4331182) for Tbp (TATA binding protein), TNF-α (tumor necrosis factor α), MCP-1 (monocyte chemoattractant protein 1, also known as CC chemokine ligand 2, CCL2), IFN-γ (interferon γ), TGF-β ([…]) and Taqman Gene Expression Master Mix according to manufacturer's instructions on the ABI Prism 7500 sequence detection system (Applied Biosystems). Tbp was chosen as the endogenous control due to its low variability and low to medium relative abundance in terms of expression in blood (30). Each measurement was performed in triplicate and results were analyzed using SDS 2.2.1 software (Applied Biosystems). Gene expression was determined using the relative standard curve method normalized to Tbp expression.

peripheral leukocytes [5] = test: γ-H2AX immunofluorescence (DNA double strand breaks); assay type: in vivo, mice; conditions: 3% DSS
Experimental: Peripheral blood was incubated in Buffer EL (Qiagen, Valencia, Calif.) on ice to remove erythrocytes. Samples were then processed on coverslips essentially as described elsewhere (26). […] Coverslips were mounted with [sequence] with 4,6-diamidino-2-phenylindole (Vector Laboratories, Burlingame, Calif.). Images were captured with CytoVision® (Applied Imaging Corporation, San Jose, Calif.) connected to a Zeiss Axioplan 2 microscope. At least 125 cells were counted and cells with more than four distinct foci in the nucleus were considered positive for γ-H2AX (26). Apoptotic cells, which are distinguishable due to presence of 10-fold the number of nuclear foci in damaged cells (27), were not included in analyses.
Peripheral blood and splenocytes were incubated in Buffer EL (Qiagen, Valencia, Calif.) on ice to remove erythrocytes. […] Samples were then processed on coverslips as described elsewhere (6). Briefly, after permeabilization and blocking, cells were incubated with mouse anti-phospho-Histone H2A.X S139(P) (Upstate, Temecula, Calif.) at 1:400 followed by FITC-conjugated anti-mouse IgG (Jackson ImmunoResearch, West Grove, Pa.) at 1:200. Coverslips were mounted with [sequence] with 4,6-diamidino-2-phenylindole (Vector Laboratories, Burlingame, Calif.). […] At least 125 cells were counted and cells with more than four distinct foci in the nucleus were considered positive (6). […]

Row | Molecule | Onset of DNA damage to peripheral leukocytes (comet and γ-H2AX) (peripheral leukocytes [1]; TNF-α 500 ng/mouse) [hour post-injection] | Time until which DNA damage remained elevated (peripheral leukocytes [1]; TNF-α 500 ng/mouse) | Time of maximum DNA damage to peripheral leukocytes (peripheral leukocytes [1]) [hours post-injection] | Time to repair of DNA damage in peripheral leukocytes (peripheral leukocytes [1]) [hours post-injection] | Micronuclei formation in normochromatic erythrocytes vs before injection [2] | Direct mutagenicity/genotoxicity [3] | Cytokine mRNA expression in peripheral blood [4] | Percentage of cells positive for γ-H2AX nuclear foci vs non-treated (peripheral leukocytes [5]; after first 7 day acute treatment, p<0.01) | Percent γ-H2AX positive cells vs non-treated, chronic phase (peripheral leukocytes [5]; until end of treatment, p<0.05)
1 | TNF-α | 1 | approximately 4 hours post-injection | 1 | ≤ 24 | minimally yet significantly elevated |  |  |  | 
2 | dextran sulfate sodium [DSS] |  |  |  |  |  | not a mutagen nor genotoxic; also recorded: not directly genotoxic | up-regulation of TNF-α, MCP-1 (CCL2), and IFN-γ | increased dramatically | remained elevated over non-treated animals
3 | IL-β: Recombinant mouse IL-1β (Sigma), injected via the tail vein at 100 ng/mouse (protein, UniProt P10749 118-269, looked up) Interleukin-1 beta: VPIRQLHYRLRDEQQKSLVLSDPYELKALHLNGQNINQQVIFSMSFVQGEPSNDKIPVALGLKGKNLYLSCVMKDGTPTLQLESVDPKQYPKKKMEKRFVFNKIEVKSKVEFESAEFPNWYISTSQAEHKPVFLGNNSGQDIIDFTMESVSS |  |  | 4 | ≤ 24 |  |  |  |  | 
